Where no end group is shown, it is not given here.
What was measured:
Assay in all cases: cell-based or functional assay
CCR10 = molecular target: T1, CCR10 (UniProt P46092)
T1 sequence (looked up): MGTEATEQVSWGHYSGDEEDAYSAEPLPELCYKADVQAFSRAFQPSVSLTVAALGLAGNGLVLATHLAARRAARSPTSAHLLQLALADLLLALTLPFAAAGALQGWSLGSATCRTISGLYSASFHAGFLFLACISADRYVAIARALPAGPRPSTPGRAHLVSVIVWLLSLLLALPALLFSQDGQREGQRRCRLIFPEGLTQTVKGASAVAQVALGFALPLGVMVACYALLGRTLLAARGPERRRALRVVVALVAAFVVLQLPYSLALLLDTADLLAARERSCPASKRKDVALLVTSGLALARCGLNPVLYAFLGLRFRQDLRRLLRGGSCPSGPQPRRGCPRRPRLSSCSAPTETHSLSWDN

CCR4 = molecular target: T2, CCR4 (UniProt P51679)
T2 sequence (looked up): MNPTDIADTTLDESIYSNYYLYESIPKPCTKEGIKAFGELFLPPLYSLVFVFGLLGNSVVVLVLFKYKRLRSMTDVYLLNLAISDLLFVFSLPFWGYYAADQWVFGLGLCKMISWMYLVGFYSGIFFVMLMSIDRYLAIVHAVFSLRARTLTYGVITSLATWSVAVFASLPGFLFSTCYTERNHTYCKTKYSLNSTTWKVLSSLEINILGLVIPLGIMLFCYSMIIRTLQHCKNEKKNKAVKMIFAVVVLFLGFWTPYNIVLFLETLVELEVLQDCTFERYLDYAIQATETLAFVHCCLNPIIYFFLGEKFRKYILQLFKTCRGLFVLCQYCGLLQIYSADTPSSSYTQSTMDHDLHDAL

CCR8 = CCR8 (UniProt P51685)
CRHR2 = molecular target: T3, CRHR2 (UniProt Q13324)
T3 sequence (looked up): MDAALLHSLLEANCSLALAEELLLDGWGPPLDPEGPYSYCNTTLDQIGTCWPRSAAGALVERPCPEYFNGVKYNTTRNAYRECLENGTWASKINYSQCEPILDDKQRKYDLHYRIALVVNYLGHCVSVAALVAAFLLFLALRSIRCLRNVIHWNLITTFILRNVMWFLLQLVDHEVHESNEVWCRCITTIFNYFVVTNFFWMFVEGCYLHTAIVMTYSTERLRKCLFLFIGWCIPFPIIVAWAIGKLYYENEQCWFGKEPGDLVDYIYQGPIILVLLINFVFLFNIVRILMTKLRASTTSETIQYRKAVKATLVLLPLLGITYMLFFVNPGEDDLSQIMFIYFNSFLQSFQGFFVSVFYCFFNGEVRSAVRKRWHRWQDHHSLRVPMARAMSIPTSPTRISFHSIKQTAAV

CRHR1 = CRHR1 (UniProt P34998)
CRHR1, sequence (P34998 24-415 limits assumed): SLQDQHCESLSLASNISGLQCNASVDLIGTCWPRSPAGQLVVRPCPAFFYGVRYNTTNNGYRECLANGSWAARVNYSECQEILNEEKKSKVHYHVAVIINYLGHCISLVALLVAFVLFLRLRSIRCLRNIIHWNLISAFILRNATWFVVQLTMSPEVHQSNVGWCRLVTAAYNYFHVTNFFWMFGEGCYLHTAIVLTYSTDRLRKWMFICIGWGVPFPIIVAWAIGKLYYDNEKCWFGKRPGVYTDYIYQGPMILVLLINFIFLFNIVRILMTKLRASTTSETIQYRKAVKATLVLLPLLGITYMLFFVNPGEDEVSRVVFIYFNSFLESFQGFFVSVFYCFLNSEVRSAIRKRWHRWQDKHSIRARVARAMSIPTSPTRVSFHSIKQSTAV

CXCR3 = CXCR3 (UniProt P49682)
CXCR3, sequence (P49682 whole entry): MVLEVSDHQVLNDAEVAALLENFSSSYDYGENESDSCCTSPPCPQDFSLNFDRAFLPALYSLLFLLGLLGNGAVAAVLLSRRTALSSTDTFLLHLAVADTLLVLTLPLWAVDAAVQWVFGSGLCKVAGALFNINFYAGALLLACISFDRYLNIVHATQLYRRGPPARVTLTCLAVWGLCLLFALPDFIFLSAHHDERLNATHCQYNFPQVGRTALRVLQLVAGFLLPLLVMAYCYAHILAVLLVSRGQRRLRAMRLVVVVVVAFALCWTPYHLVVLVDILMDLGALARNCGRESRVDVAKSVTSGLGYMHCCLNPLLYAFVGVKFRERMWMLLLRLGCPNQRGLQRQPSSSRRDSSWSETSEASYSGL

CXCR5 = CXCR5 (UniProt P32302)
CXCR5, sequence (P32302 whole entry): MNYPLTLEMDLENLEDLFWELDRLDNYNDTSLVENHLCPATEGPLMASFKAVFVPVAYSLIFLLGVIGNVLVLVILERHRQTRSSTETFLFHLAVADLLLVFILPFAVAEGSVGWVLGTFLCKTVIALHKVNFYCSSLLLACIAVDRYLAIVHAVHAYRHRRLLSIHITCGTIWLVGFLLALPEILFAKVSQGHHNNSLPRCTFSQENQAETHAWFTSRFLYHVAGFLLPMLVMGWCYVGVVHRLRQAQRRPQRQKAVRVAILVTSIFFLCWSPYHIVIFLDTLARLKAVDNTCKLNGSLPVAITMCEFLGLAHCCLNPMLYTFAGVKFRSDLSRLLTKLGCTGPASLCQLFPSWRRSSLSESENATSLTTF

CXCR6 = CXCR6 (UniProt O00574)
CXCR6, sequence (O00574 whole entry): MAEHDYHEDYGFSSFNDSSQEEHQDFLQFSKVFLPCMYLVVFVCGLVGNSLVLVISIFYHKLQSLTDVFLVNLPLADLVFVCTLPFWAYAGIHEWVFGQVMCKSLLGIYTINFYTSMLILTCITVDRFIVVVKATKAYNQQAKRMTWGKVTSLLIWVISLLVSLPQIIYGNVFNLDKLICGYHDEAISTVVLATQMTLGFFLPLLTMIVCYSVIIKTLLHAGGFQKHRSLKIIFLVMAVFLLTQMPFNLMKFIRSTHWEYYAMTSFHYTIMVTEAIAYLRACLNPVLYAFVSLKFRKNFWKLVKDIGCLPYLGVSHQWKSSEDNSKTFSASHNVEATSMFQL

F2R, P25116 = molecular target: F2R, P25116
F2R, P25116, sequence (P25116 22-425): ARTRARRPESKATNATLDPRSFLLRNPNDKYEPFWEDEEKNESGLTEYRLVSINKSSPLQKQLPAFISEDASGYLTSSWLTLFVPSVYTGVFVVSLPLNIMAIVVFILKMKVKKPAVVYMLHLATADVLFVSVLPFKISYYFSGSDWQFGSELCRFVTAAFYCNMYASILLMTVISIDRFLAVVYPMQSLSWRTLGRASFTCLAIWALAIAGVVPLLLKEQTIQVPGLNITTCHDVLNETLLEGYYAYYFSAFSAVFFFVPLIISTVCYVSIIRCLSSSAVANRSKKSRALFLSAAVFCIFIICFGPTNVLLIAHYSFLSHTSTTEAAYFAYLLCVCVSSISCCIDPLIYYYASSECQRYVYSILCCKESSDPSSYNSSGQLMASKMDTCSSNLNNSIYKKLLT

GPR103 = GPR103 (UniProt Q96P65)
GPR103, sequence (Q96P65 whole entry): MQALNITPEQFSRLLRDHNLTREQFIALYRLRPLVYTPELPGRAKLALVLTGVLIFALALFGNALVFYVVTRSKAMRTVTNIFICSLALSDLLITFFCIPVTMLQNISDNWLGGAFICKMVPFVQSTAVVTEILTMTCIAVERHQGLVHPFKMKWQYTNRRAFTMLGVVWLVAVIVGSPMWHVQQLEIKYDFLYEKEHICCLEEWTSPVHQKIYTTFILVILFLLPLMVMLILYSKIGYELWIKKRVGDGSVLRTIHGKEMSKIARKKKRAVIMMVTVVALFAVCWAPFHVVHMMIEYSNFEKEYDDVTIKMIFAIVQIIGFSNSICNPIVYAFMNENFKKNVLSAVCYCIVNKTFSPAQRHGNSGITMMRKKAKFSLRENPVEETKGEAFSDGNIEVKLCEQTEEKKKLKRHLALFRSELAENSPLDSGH

MCHR1 = MCHR1 (UniProt Q99705)
MCHR1, sequence (Q99705 whole entry): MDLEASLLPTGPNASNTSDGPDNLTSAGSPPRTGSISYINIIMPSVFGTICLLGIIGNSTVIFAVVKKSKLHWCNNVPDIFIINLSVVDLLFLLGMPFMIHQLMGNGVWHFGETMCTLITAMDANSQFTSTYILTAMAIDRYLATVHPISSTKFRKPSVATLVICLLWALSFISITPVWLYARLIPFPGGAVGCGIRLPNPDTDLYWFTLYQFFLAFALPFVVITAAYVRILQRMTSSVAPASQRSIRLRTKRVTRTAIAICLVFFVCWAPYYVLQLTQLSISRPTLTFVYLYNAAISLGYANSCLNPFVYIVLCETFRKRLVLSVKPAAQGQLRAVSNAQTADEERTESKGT

MCHR2 = MCHR2 (UniProt Q969V1)
MCHR2, sequence (Q969V1 whole entry): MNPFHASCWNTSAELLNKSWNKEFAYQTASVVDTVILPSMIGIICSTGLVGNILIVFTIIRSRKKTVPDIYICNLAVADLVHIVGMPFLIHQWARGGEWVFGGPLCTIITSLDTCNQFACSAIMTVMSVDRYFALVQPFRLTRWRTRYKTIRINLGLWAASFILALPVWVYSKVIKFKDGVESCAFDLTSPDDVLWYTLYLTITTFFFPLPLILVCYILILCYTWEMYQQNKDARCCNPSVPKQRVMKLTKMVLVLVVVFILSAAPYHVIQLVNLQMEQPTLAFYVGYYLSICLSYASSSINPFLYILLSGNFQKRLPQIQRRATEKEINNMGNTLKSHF

NMU1R = NMU1R (UniProt Q9HB89)
NMU1R, sequence (Q9HB89 whole entry): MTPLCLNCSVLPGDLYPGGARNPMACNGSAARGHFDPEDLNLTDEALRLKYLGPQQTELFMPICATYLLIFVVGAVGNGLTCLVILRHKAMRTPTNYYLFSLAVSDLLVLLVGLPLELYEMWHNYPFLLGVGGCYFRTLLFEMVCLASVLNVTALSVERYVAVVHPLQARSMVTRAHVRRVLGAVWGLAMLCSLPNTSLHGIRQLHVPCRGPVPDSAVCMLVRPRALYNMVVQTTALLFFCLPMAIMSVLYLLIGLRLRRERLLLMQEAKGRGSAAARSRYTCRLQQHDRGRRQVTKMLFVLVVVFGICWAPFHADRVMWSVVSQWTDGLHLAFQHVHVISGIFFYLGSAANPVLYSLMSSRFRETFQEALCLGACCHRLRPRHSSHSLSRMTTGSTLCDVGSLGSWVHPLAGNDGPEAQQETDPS

NPBWR1 = molecular target: T4, NPBWR1 (UniProt P48145)
T4 sequence (looked up): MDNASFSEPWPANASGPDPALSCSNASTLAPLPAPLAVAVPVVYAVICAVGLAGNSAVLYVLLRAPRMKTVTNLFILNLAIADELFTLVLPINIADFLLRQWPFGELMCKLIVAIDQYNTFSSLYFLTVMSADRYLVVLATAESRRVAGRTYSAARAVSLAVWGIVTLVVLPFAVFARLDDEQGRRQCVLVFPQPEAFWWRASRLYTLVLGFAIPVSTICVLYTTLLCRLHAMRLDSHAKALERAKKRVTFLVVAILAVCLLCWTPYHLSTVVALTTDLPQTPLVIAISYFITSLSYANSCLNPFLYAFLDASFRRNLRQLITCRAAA

NPBWR2 = NPBWR2 (UniProt P48146)
NPBWR2, sequence (P48146 whole entry): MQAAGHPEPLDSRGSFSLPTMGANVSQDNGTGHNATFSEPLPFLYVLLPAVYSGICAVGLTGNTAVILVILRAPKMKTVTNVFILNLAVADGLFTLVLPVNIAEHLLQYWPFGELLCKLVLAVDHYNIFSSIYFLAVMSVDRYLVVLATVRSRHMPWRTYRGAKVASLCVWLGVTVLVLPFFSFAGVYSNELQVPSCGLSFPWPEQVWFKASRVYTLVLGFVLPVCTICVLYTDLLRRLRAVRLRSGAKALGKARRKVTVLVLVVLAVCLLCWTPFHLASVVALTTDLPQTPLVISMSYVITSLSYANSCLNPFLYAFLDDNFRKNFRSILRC

NPSR1B = molecular target: T5, NPSR1B (UniProt Q6W5P4)
T5 sequence (looked up): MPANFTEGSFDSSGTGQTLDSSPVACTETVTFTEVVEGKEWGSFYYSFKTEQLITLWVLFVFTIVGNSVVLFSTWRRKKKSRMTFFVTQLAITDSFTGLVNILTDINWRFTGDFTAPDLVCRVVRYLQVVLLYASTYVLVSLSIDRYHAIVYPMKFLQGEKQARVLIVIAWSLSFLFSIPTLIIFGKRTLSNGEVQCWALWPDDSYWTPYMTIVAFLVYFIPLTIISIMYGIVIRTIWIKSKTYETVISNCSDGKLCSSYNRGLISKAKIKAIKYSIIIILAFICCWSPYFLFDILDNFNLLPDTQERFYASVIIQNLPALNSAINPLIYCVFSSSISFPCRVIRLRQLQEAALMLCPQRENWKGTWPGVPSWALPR

PPYR1 = PPYR1 (UniProt P50391)
PPYR1, sequence (P50391 whole entry): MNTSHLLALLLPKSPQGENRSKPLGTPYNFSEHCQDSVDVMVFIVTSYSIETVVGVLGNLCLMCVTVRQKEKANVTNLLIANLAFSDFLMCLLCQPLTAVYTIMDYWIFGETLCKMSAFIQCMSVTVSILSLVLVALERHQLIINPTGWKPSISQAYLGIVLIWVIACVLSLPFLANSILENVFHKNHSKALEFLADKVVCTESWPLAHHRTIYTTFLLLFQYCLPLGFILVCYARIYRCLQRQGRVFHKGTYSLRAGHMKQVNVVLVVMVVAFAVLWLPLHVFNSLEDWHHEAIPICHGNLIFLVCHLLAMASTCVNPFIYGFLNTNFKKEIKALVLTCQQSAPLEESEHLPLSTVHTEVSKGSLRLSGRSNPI

PROKR1 = PROKR1 (UniProt Q8TCW9)
PROKR1, sequence (Q8TCW9 whole entry): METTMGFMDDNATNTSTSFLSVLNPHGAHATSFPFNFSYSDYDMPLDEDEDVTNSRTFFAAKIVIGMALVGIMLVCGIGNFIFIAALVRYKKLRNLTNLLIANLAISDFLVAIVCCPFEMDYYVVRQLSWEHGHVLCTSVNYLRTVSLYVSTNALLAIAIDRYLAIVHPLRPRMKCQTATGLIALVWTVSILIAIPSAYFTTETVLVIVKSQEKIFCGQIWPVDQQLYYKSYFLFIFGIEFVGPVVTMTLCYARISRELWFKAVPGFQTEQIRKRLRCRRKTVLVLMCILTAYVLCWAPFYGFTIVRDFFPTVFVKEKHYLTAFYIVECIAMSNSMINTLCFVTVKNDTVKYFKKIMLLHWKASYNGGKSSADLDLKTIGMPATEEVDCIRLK

PROKR2 = PROKR2 (UniProt Q8NFJ6)
PROKR2, sequence (Q8NFJ6 whole entry): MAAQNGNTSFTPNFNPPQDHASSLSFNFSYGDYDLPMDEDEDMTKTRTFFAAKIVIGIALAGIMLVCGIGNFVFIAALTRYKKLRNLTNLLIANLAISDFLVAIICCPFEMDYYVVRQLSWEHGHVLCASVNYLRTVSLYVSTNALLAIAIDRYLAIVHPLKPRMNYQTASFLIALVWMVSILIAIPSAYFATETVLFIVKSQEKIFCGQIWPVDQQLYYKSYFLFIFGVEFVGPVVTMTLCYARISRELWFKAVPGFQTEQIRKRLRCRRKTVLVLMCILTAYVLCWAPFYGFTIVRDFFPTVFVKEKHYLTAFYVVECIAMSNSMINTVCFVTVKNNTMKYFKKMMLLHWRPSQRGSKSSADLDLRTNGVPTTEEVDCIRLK

UTR2 = molecular target: T6, UTR2 (UniProt Q9UKP6)
T6 sequence (looked up): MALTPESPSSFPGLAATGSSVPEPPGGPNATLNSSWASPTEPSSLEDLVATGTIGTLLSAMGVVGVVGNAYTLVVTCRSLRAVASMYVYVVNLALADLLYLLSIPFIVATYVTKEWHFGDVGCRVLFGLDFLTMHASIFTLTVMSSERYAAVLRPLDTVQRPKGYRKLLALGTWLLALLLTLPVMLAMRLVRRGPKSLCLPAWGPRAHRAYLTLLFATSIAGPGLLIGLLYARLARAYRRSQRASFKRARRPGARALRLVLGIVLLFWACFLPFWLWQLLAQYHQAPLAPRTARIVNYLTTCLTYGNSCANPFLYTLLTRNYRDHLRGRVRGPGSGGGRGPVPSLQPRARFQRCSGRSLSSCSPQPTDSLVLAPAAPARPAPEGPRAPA

DRD2L, P14416 = molecular target: DRD2L, P14416

B1: CCL27 (ligand, UniProt Q9Y4X3 25-112, looked up)
chain: FLLPPSTACCTQLYRKPLSDKLLRKVIQVELQEADGDCHLQAFVLHLAQRSICIHPQNPSLSQWFEHQERKLHGTLPKLNFGMLRKMG
EC50 (RC50), arrestin, agonist mode (CCR10): 26.3 nM
EC80, arrestin, agonist mode (CCR10): 109 nM

B2: CCL22 (ligand, UniProt O00626 25-93, looked up)
chain: GPYGANMEDSVCCRDYVRYRLPLRVVKHFYWTSDSCPRPGVVLLTFRDKEICADPRVPWVKMILNKLSQ
EC50 (RC50), arrestin, agonist mode (CCR4): 3.44 nM
EC80, arrestin, agonist mode (CCR4): 19.7 nM

B3: CCL1 (ligand, UniProt P22362 24-96, looked up)
chain: KSMQVPFSRCCFSFAEQEIPLRAILCYRNTSSICSNEGLIFKLKRGKEACALDTVGWVQRHRKMLRHCPSKRK
EC50 (RC50), arrestin, agonist mode (CCR8): 45.8 nM
EC80, arrestin, agonist mode (CCR8): 159 nM

QGPPISIDLSLELLRKMIEIEKQEKEKQQAANNRLLLDTI (peptide, UniProt P01144 1-40, looked up) [Sauvagine]
EC50 (RC50), arrestin, agonist mode (CRHR2): 5.99 nM
EC80, arrestin, agonist mode (CRHR2): 24.5 nM
EC50 (RC50), arrestin, agonist mode (CRHR1): 3.28 nM
EC80, arrestin, agonist mode (CRHR1): 10.3 nM

B4: CXCL11 (ligand, UniProt O14625 22-94, looked up)
chain: FPMFKRGRCLCIGPGVKAVKVADIEKASIMYPSNNCDKIEVIITLKENKGQRCLNPKSKQARLIIKKVERKNF
EC50 (RC50), arrestin, agonist mode (CXCR3): 12 nM
EC80, arrestin, agonist mode (CXCR3): 17.9 nM

B5: CXCL13 (ligand, UniProt O43927 23-109, looked up)
chain: VLEVYYTSLRCRCVQESSVFIPRRFIDRIQILPRGNGCPRKEIIVWKKNKSIVCVDPQAEWIQRMMEVLRKRSSSTLPVPVFKRKIP
EC50 (RC50), arrestin, agonist mode (CXCR5): 21 nM
EC80, arrestin, agonist mode (CXCR5): 61.2 nM

B6: CXCL16 (ligand, UniProt Q9H2A7 30-118, looked up)
chain: NEGSVTGSCYCGKRISSDSPPSVQFMNRLRKHLRAYHRCLYYTRFQLLSWSVCGGNKDPWVQELMSCLDLKECGHAYSGIVAHQKHLLP
EC50 (RC50), arrestin, agonist mode (CXCR6): 6.81 nM
EC80, arrestin, agonist mode (CXCR6): 21 nM

TFLLR-NH2 [TFLLR-NH2]
EC50 (RC50), arrestin, agonist mode (F2R, P25116): 14500 nM
EC80, arrestin, agonist mode (F2R, P25116): 28700 nM

TSGPLGNLAEELNGYSRKKGGFSFRF (peptide, UniProt P83859 108-133, looked up) [QRFP-26]
EC50 (RC50), arrestin, agonist mode (GPR103): 10 nM
EC80, arrestin, agonist mode (GPR103): 27.1 nM

DFDMLRCMLGRVYRPCWQV (peptide, UniProt P20382 147-165, looked up) [MCH]
EC50 (RC50), arrestin, agonist mode (MCHR1): 167 nM
EC80, arrestin, agonist mode (MCHR1): 444 nM
EC50 (RC50), arrestin, agonist mode (MCHR2): 5.51 nM
EC80, arrestin, agonist mode (MCHR2): 20.2 nM

FRVDEEFQSPFASQSRGYFLFRPRN (peptide, UniProt P48645 142-166, looked up) [Neuromedin U-25]
EC50 (RC50), arrestin, agonist mode (NMU1R): 1.43 nM
EC80, arrestin, agonist mode (NMU1R): 3.68 nM

WYKHVASPRYHTVGRAAGLLMGL (peptide, UniProt Q8N729 33-55, looked up) [Neuropeptide W23]
EC50 (RC50), arrestin, agonist mode (NPBWR1): 2.17 nM
EC80, arrestin, agonist mode (NPBWR1): 8.01 nM
EC50 (RC50), arrestin, agonist mode (NPBWR2): 3.62 nM
EC80, arrestin, agonist mode (NPBWR2): 12.2 nM

SFRNGVGTGMKKTSFQRAKS (peptide, UniProt P0C0P6 70-89, looked up) [Neuropeptide S]
EC50 (RC50), arrestin, agonist mode (NPSR1B): 23.6 nM
EC80, arrestin, agonist mode (NPSR1B): 45.4 nM

APLEPVYPGDNATPEQMAQYAADLRRYINMLTRPRY (peptide, UniProt P01298 30-65, looked up) [Pancreatic Polypeptide]
EC50 (RC50), arrestin, agonist mode (PPYR1): 1.5 nM
EC80, arrestin, agonist mode (PPYR1): 5 nM

B7: EG VEGF (ligand, UniProt P58294 20-105, looked up)
chain: AVITGACERDVQCGAGTCCAISLWLRGLRMCTPLGREGEECHPGSHKVPFFRKRKHHTCPCLPNLLCSRFPDGRYRCSMDLKNINF
EC50 (RC50), arrestin, agonist mode (PROKR1): 17.7 nM
EC80, arrestin, agonist mode (PROKR1): 53.7 nM
EC50 (RC50), arrestin, agonist mode (PROKR2): 10.6 nM
EC80, arrestin, agonist mode (PROKR2): 30 nM

ETPDCFWKYCV (peptide, UniProt O95399 114-124, looked up) [Urotensin II]
EC50 (RC50), arrestin, agonist mode (UTR2): 1.19 nM
EC80, arrestin, agonist mode (UTR2): 4.22 nM

QATVGDVNTDRPGLLDLK (also: synthesised on Rink amide resin, C-terminal amide not given here outright) [octadecaneuropeptide (ODN)]
% Activity, arrestin, antagonist mode, 2.5 uM (DRD2L, P14416): -16.8%
% Activity, arrestin, antagonist mode, 2.5 uM (F2R, P25116): -17%

Source: patent US20260184748A1, “COMPOSITIONS COMPRISING OCTADECANEUROPEPTIDES (ODN) AND SYNTHETIC DERIVATIVES THEREOF AND METHODS OF USE FOR MODULATION OF FOOD INTAKE, OBESITY, BODY WEIGHT, NAUSEA, AND EMESIS” (The Trustees of the University of Pennsylvania, priority 2022, published 2026)
